In paper PMC4536467, “A high affinity RIM-binding protein/Aplip1 interaction prevents the formation of ectopic axonal active zones” (eLife, 2015):

B1: RIM1 peptide (GRQLPQVPVRSG) (peptide)
peptide: Ac-GRQLPQVPVRSG-NH2
notes: PxxP peptide named RIM1; May be a mammalian RIM1 motif or one of two motifs of Drosophila RIM; source: synthetic peptide (Leibniz Institute for Molecular Pharmacology)
B2: RIM2 peptide (GRQLPQLPPKGT) (peptide)
peptide: Ac-GRQLPQLPPKGT-NH2
notes: PxxP peptide named RIM2; May be a mammalian RIM2 motif or one of two motifs of Drosophila RIM; source: synthetic peptide (Leibniz Institute for Molecular Pharmacology)
B3: Aplip-PxxP1 peptide (149-TRRRRKLPEIPKNKK-163) (peptide)
peptide: Ac-TRRRRKLPEIPKNKK-NH2
notes: Aplip1, D. melanogaster, residues 149-163 with the first PxxP motif; also called Aplip1 peptide; Aplip1-PxxP1 peptide; source: synthetic peptide (Leibniz Institute for Molecular Pharmacology)
B4: Cac peptide (1685-IGRRLPPTPSKPSTL-1699) (peptide)
peptide: Ac-IGRRLPPTPSKPSTL-NH2
notes: also called Cacophony peptide; Cac-derived peptide; source: synthetic peptide (Leibniz Institute for Molecular Pharmacology)

Columns and labels:
RBP SH3-II+III = assay: Isothermal titration calorimetry (ITC), peptide titrated into tandem RBP SH3-II+III; type: binding, Drosophila; details: second and third SH3 domain of RBP
Method: ITC experiments were performed at 25°C on an iTC200 microcalorimeter (Malvern Instruments Ltd., United Kingdom). The same peptides were employed as used for the co-crystallization experiments (see below). Lyophilized peptides were resuspended in the final buffer of the proteins (10 mM Tris-HCl pH 7.4, 100 mM NaCl). RBP SH3-II and SH3-III were both provided at a concentration of 150 µM, RBP SH3-II+III was provided at 78 µM. The proteins were titrated with 16 injections of 2.5 µl of either Aplip1, Cac, RIM1 or RIM2 peptide at a concentration of 2 mM with 2-min intervals. The released heat was obtained by integrating the calorimetric output curves. Binding parameters were calculated using the Origin5 software using the ‘One Set of Sites’ curve fitting model provided by the software.
For crystallization experiment the RBP SH3-II was concentrated to 56 mg/ml and the RBP SH3-III to 62 mg/ml. The same peptides as for ITC measurements were used and synthesized at the Leibniz Institute for Molecular Pharmacology with N-terminal acetylation and C-terminal amidation. The unsolubilized peptides were mixed in a fivefold molar excess with the protein solution and incubated for 2 hr on ice. Insoluble peptide was removed by centrifugation (16,000×g for 1 min) prior to crystallization experiments. All crystallization experiments were carried out at 291 K in a sitting drop setup. […]

RBP SH3-I = assay: Isothermal titration calorimetry (ITC), peptide titrated into RBP SH3-I; type: binding, Drosophila; details: 25°C, result in words
RBP SH3-III = assay: Semi-quantitative liquid Y2H ß-galactosidase assay, bait RBP SH3-III; type: cell-based, Drosophila; details: n = 3 independent experiments, mean ± SEM
From the text: (§1) The plasmids (pP6 and pB27) encode tryptophan (Trp) and leucine (Leu) biosynthesis genes, and were successfully double transformed into the TATA strain lacking genes for synthesis of Leu and Trp which can be followed by positive growth in LT media. Reporter genes for the protein–protein interaction are HIS3, which can be later detected by growth on plates lacking histidin, as well as lacZ which allows the detection of interaction in a more quantitative fashion with a β-galactosidase assay. To transform the yeast cells with the pP6 and pB27 vector respectively the LiAc/single strand DNA/PEG technique was used ([Gietz and Schiestl, 2007]).
(§2) The assay was carried out as described in JH Miller ‘Experiments in Molecular Genetics’ 1972 Cold Spring Harbor Laboratories pages 352–355.
(§3) The RBP constructs for Y2H were cloned into pB27 bait vector. The RBP cDNA clone AT04807 (Drosophila Genomics Resource Centre) was used as a template for PCR reaction. For amplification the following primers were used: […]

RBP SH3-II = assay: Semi-quantitative liquid Y2H ß-galactosidase assay, bait RBP SH3-II; type: cell-based, Drosophila; details: n = 3 independent experiments, mean ± SEM
From the text: as §1, §2, §3

[1] = tested on: RBP SH3-II* (Prolin1373 → Leucin); assay: Semi-quantitative liquid Y2H ß-galactosidase assay, bait point-mutated RBP SH3-II*; type: cell-based, Drosophila; details: n = 3 independent experiments, mean ± SEM
From the text: as §1, §2
(§4) By applying the site-directed mutagenesis strategy, different constructs were designed for RBP using mutated primers. Mutagenesis was carried out by Dr Martin Meixner (SMB. GmbH, Germany,). The following point mutations were used:
RBP SH3-II*: Prolin1373 → Leucin

[2] = tested on: RBP SH3-III* (Prolin1500 → Leucin); assay: Semi-quantitative liquid Y2H ß-galactosidase assay, bait point-mutated RBP SH3-III*; type: cell-based, Drosophila; details: n = 3 independent experiments, mean ± SEM
From the text: as §1, §2, §4
RBP SH3-III*: Prolin1500 → Leucin

[3] = target: T1, RBP SH3-III (ITC construct) (D. melanogaster); assay: ITC; 25°C, iTC200; RBP SH3-II and SH3-III at 150 µM, SH3-II+III at 78 µM in the cell, titrated with 16 injections of 2.5 µl peptide at 2 mM; 10 mM Tris-HCl pH 7.4, 100 mM NaCl; 'One Set of Sites' model; details: both partners purified
T1 construct: it may be the same protein; also called RBP-BP SH3-III
T1 chain: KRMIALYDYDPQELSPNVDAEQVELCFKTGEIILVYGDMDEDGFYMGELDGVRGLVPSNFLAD

[4] = target: T2, RBP SH3-II (residue 1318–1382; ITC and crystallisation construct) (D. melanogaster); assay: as above; details: both partners purified
T2 construct: pGEX-6P1, EcoRI/XhoI; also called RBP-BP SH3-II; source: E. coli BL21-CodonPlus-RIL, purified (glutathione sepharose, PreScission cleavage, Superdex 75); not shown: GST, N-terminal, cleaved
T2 chain: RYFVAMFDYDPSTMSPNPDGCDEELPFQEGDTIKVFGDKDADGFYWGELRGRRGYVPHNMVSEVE

[5] = target: T3, RBP SH3-II (residue 1318–1382; ITC and crystallisation construct) (D. melanogaster); assay: ITC
T3 chain: T2 chain

[6] = target: T4, RBP SH3-II+III (ITC construct) (D. melanogaster); assay: ITC
T4 chain: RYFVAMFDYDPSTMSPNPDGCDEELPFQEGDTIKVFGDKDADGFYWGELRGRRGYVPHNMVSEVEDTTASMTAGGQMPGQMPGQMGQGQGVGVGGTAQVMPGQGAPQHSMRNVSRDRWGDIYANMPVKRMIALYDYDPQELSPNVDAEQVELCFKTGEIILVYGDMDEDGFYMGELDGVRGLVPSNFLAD

[7] = target: T5, RBP SH3-III (ITC construct) (D. melanogaster); assay: ITC
T5 chain: T1 chain

[8] = target: T6, RBP SH3-II+III (ITC construct) (D. melanogaster); assay: ITC; 25°C, iTC200; RBP SH3-II and SH3-III at 150 µM, SH3-II+III at 78 µM in the cell, titrated with 16 injections of 2.5 µl peptide at 2 mM; 10 mM Tris-HCl pH 7.4, 100 mM NaCl; 'One Set of Sites' model; details: both partners purified
T6 construct: Cloning and purification of this construct are not described; also called tandem SH3-II+III; RBP-BP SH3-II+SH3-III
T6 chain: T4 chain

[9] = target: T2, RBP SH3-II (residue 1318–1382; ITC and …); assay: crystal structure; co-crystallisation of the SH3 domain with a fivefold molar excess of peptide, sitting drop, 291 K; details: both partners purified
[10] = target: T7, RBP SH3-III (residue 1441–1507; crystallisation construct) (D. melanogaster); assay: as above; details: both partners purified
T7 construct: pGEX-6P1, EcoRI/XhoI; linker residues may remain at the N-terminus after PreScission cleavage; source: E. coli BL21-CodonPlus-RIL, purified (glutathione sepharose, PreScission cleavage, Superdex 75); not shown: GST, N-terminal, cleaved
T7 chain: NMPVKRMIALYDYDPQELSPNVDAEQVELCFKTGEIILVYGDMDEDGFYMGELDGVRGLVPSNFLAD

| Molecule | mean ß-Gal4 units: RBP SH3-III (RBP SH3-III) | mean ß-Gal4 units: RBP SH3-II (RBP SH3-II) | binding result [3] | Kd [5] | Kd [6] | Kd [7] | also measured |
| --- | --- | --- | --- | --- | --- | --- | --- |
| Ac-TRRRRKLPEIPKNKK-NH2 [Aplip1] |  |  |  |  |  |  | affinity relative to RBP binding of its synaptic ligands (Ca2+ channels/RIM) (RBP SH3-II+III): more than 10 fold; binding to RBP SH3-I (RBP SH3-I): could not detect any binding |
| EDDELGDGLKVTLSSDGSLDTNDSFNSHRHHPLNHQDAIGGFLGMDTSGLGGNSAPVTIGASTDLLAPNTAATRRRRKLAEIAKNKKSSILHLLGGSNFGSLADEFRNGGGGGIPPAVRSGQQRSFLSLKCGYLMDEDS [Aplip1-AxxA1, Y2H prey fragment of Aplip1 (139 AA) with mutated first PxxP motif (P156 → A; P159 → A)] | 0.2 ± 0.0 ß-Gal4 units | 0.1 ± 0.1 ß-Gal4 units |  |  |  |  |  |
| EDDELGDGLKVTLSSDGSLDTNDSFNSHRHHPLNHQDAIGGFLGMDTSGLGGNSAPVTIGASTDLLAPNTAATRRRRKLPEIPKNKKSSILHLLGGSNFGSLADEFRNGGGGGIPPAVRSGQQRSFLSLKCGYLMDEDS [Aplip1-PxxP1, Y2H prey fragment of Aplip1 (139 AA) containing only the first PxxP motif] | 29.1 ± 7.4 ß-Gal4 units | 24.3 ± 6.6 ß-Gal4 units |  |  |  |  | mean ß-Gal4 units: RBP SH3-II* [1]: 0.1 ± 0.0 ß-Gal4 units; mean ß-Gal4 units: RBP SH3-III* [2]: 0.1 ± 0.0 ß-Gal4 units |
| LLGGSNFGSLADEFRNGGGGGIPPAVRSGQQRSFLSLKCGYLMDEDSSPDSERMQSLGDVDSGHSTAHSPNDFKSMSPQITSPVSQSPFPPPFGGVPFGQ [Aplip1-PxxP2, Y2H prey fragment of Aplip1 (100 AA) containing only the second PxxP motif] | 0.2 ± 0.1 ß-Gal4 units | 0.2 ± 0.0 ß-Gal4 units |  |  |  |  |  |
| B1 |  |  | binds | 10.4 µM | 16 µM | 8.4 µM | binding result [4]: binds |
| B2 |  |  | binds | 20 µM | 35.7 µM | 12.5 µM | binding result [4]: binds |
| B3 |  |  | binds | 4.1 µM | 0.54 µM | 1.4 µM | binding result [8]: binds; binding result [9]: binds |
| B4 |  |  | binds | 20.2 µM | 31.3 µM | 17.3 µM | binding result [10]: binds; binding result [9]: binds |
